B1: Vesicle-associated membrane protein-associated protein SCS2 (Saccharomyces cerevisiae), P40075 (parent)
chain: MSAVEISPDVLVYKSPLTEQSTEYASISNNSDQTIAFKVKTTAPKFYCVRPNAAVVAPGETIQVQVIFLGLTEEPAADFKCRDKFLVITLPSPYDLNGKAVADVWSDLEAEFKQQAISKKIKVKYLISPDVHPAQNQNIQENKETVEPVVQDSEPKEVPAVVNEKEVPAEPETQPPVQVKKEEVPPVVQKTVPHENEKQTSNSTPAPQNQIKEAATVPAENESSSMGIFILVALLILVLGWFYR
partner: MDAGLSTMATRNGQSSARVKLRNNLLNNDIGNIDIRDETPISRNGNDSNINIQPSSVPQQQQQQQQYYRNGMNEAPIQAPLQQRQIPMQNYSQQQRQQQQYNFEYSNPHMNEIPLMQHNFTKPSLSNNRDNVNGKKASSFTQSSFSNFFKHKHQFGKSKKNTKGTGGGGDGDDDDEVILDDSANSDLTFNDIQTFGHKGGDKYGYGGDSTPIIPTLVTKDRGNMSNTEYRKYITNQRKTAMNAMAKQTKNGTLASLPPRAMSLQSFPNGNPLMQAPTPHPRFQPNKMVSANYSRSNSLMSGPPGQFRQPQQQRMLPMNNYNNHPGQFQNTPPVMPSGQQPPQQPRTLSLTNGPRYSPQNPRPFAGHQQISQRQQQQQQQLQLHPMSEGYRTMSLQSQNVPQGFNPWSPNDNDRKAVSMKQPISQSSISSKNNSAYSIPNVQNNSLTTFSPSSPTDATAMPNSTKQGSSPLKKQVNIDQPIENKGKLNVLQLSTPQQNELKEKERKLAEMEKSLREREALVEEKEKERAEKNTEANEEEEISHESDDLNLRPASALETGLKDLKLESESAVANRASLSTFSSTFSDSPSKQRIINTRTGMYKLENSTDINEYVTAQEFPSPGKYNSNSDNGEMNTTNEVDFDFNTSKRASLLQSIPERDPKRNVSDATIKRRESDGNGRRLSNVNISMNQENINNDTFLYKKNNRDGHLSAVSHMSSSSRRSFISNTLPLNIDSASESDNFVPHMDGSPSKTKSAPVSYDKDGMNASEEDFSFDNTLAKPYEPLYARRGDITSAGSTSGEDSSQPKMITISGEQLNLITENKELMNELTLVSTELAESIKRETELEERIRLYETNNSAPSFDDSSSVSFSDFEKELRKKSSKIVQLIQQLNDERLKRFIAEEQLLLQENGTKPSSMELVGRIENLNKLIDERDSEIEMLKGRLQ

Variants of: B1
Conditions: with ym11_yeast ym11, P39523

| Variant | effect of a mutation on the interaction |
| --- | --- |
| MSAVEISPDVLVYKSPLTEQSTEYASISNNSDQTIAFKVKTAAPKFYCVRPNAAVVAPGETIQVQVIFLGLTEEPAADFKCRDKFLVITLPSPYDLNGKAVADVWSDLEAEFKQQAISKKIKVKYLISPDVHPAQNQNIQENKETVEPVVQDSEPKEVPAVVNEKEVPAEPETQPPVQVKKEEVPPVVQKTVPHENEKQTSNSTPAPQNQIKEAATVPAENESSSMGIFILVALLILVLGWFYR [T42A] | disrupting interaction strength |
